Assay results taken from IntAct's records for PubMed 33452816.

B1: Pleckstrin homology domain-containing family M member 1 (Homo sapiens), Q9Y4G2 (parent)
chain: MLSVVENGLDPQAAIPVIKKKLVGSVKALQKQYVSLDTVVTSEDGDANTMCSALEAVFIHGLHAKHIRAEAGGKRKKSAHQKPLPQPVFWPLLKAVTHKHIISELEHLTFVNTDVGRCRAWLRLALNDGLMECYLKLLLQEQARLHEYYQPTALLRDAEEGEFLLSFLQGLTSLSFELSYKSAILNEWTLTPLALSGLCPLSELDPLSTSGAELQRKESLDSISHSSGSEDIEVHHSGHKIRRNQKLTASSLSLDTASSSQLSCSLNSDSCLLQENGSKSPDHCEEPMSCDSDLGTANAEDSDRSLQEVLLEFSKAQVNSVPTNGLSQETEIPTPQASLSLHGLNTSTYLHCEAPAEPLPAQAASGTQDGVHVQEPRPQAPSPLDLQQPVESTSGQQPSSTVSETAREVGQGNGLQKAQAHDGAGLKLVVSSPTSPKNKSWISEDDFYRPSREQPLESASDHPIASYRGTPGSRPGLHRHFSQEPRKNCSLGALDQACVPSPGRRQAQAAPSQGHKSFRVVHRRQMGLSNPFRGLMKLGTVERRGAMGIWKELFCELSPLEFRLYLSNEEHTCVENCSLLRCESVGPAHSDGRFELVFSGKKLALRASSQDEAEDWLDRVREALQKVRPQQEDEWVNVQYPDQPEEPPEAPQGCLSPSDLLSEPAALQGTQFDWSSAQVPEPDAIKESLLYLYMDRTWMPYIFSLSLEALKCFRIRNNEKMLSDSHGVETIRDILPDTSLGGPSFFKIITAKAVLKLQAGNAEEAALWRDLVRKVLASYLETAEEAVTLGGSLDENCQEVLKFATRENGFLLQYLVAIPMEKGLDSQGCFCAGCSRQIGFSFVRPKLCAFSGLYYCDICHQDDASVIPARIIHNWDLTKRPICRQALKFLTQIRAQPLINLQMVNASLYEHVERMHLIGRRREQLKLLGDYLGLCRSGALKELSKRLNHRNYLLESPHRFSVADLQQIADGVYEGFLKALIEFASQHVYHCDLCTQRGFICQICQHHDIIFPFEFDTTVRCAECKTVFHQSCQAVVKKGCPRCARRRKYQEQNIFA

Assays:
[1] = variants of: B1; details: with rab7a_canlf RAB7A
[2] = variants of: B1; details: with gbrap_human GABARAP

| Variant | effect of a mutation on the interaction [1] | effect of a mutation on the interaction [2] |
| --- | --- | --- |
| S432A;S435A | with no effect | with no effect |
| S432D;S435D | with no effect | with no effect |
